Data from PMC10810197, “A KDPG sensor RccR governs Pseudomonas aeruginosa carbon metabolism and aminoglycoside antibiotic tolerance” (Nucleic Acids Research, 2023).
Numbering of substitutions follows the chain as printed.

How the values were obtained:
[1] = biological target: RccR (PA5438), RpiR family transcription factor of Pseudomonas aeruginosa PAO1 (Pseudomonas aeruginosa PAO1); test: crystal structure
[2] = biological target: T1, RccR WT (Pseudomonas aeruginosa PAO1) (UniProt Q9HTC8); test: EMSA; details: EMSA: 10 nM FAM-DNA, 20 mM Tris-HCl pH 8.5, 150 mM KCl, 5 mM MgCl2, 1 mM EDTA, 1 mM DTT, 0.8% Tween 20, 2.5% glycerol, on ice 30 min; 6% native PAGE, 0.5x TBE
T1 sequence: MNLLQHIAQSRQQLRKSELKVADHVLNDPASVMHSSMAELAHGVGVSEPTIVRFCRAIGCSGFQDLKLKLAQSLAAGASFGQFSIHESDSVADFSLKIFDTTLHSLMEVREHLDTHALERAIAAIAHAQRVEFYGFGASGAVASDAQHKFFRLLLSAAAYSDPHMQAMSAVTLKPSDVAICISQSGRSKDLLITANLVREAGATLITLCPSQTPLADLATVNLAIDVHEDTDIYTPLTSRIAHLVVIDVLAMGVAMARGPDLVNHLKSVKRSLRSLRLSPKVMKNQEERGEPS

[3] = biological target: T2, RccR H148A H148A (Pseudomonas aeruginosa PAO1) (UniProt Q9HTC8); test: EMSA; details: EMSA: 10 nM FAM-DNA, 20 mM Tris-HCl pH 8.5, 150 mM KCl, 5 mM MgCl2, 1 mM EDTA, 1 mM DTT, 0.8% Tween 20, 2.5% glycerol, on ice 30 min; 6% native PAGE, 0.5x TBE
T2 sequence: T1 sequence with H148A

[4] = biological target: T3, RccR H164A H164A (Pseudomonas aeruginosa PAO1) (UniProt Q9HTC8); test: EMSA; details: EMSA: 10 nM FAM-DNA, 20 mM Tris-HCl pH 8.5, 150 mM KCl, 5 mM MgCl2, 1 mM EDTA, 1 mM DTT, 0.8% Tween 20, 2.5% glycerol, on ice 30 min; 6% native PAGE, 0.5x TBE
T3 sequence: T1 sequence with H164A

[5] = biological target: T4, RccR S139A S139A (Pseudomonas aeruginosa PAO1) (UniProt Q9HTC8); test: EMSA; details: EMSA: 10 nM FAM-DNA, 20 mM Tris-HCl pH 8.5, 150 mM KCl, 5 mM MgCl2, 1 mM EDTA, 1 mM DTT, 0.8% Tween 20, 2.5% glycerol, on ice 30 min; 6% native PAGE, 0.5x TBE
T4 sequence: T1 sequence with S139A

Substance: RccR (PA5438), RpiR family transcription factor of Pseudomonas aeruginosa PAO1 (natural protein)
- stoichiometry N [1]: 4

Substance: TGTTTGCCTCACTCTGCTCTAGACCAGCTCTGGACCCGGGCCGCACGGCCTTGTAGTCCGAGCCGCGGCATACTACATGATGCCGCGGGAAAAATCAGTGGTTACGCGTCGCGTTACGACTGGATGACGCTTCACGGTCACGTTGGCCAGGCTCAATGTTCGCAAAAAAACTGTACTTTGTTCCAGATAAATCTAAAAACAGTACACGATTTATCACGAGCCCA (double strand) [glcB promoter]
- binding [2]: binds

Substance: GGCTTGCTCCAGGGCGGAAAGGCTTCCAGAATCGGATGCCATAGGTGAGCGGCCGGCCTCGTGGGCGACCGCAGCTAATTCTTGGATGTTCTCCGGGGGTGTACCCGGCGACTTGTAGTTTTACTACAGATCAGTCTGAGAAACAGCCCTCTGGATACAATTTTTAGTAGTAAAACTACATTTCGATTGTCGCTGTCAGGCTATAAGGCCCGATGT (double strand) [aceE promoter]
- binding [3]: no binding
- binding [4]: no binding
- binding [5]: no binding
- binding [2]: binds
